What all share (experiment): cell-based or functional assay
The target of experiment [1] is CaV2.2 in dorsal root ganglion neurons from Nf1+/- mice (mouse) (UniProt O55017).
Experiment [2] deals with CaV2.2 expressed in human embryonic kidney 293 (HEK293) cells.
Experiment [3] deals with CaV2.2 in transfected neurons.

Chain of CaV2.2 in dorsal root ganglion neurons from Nf1+/- mice (mouse) (O55017 whole entry): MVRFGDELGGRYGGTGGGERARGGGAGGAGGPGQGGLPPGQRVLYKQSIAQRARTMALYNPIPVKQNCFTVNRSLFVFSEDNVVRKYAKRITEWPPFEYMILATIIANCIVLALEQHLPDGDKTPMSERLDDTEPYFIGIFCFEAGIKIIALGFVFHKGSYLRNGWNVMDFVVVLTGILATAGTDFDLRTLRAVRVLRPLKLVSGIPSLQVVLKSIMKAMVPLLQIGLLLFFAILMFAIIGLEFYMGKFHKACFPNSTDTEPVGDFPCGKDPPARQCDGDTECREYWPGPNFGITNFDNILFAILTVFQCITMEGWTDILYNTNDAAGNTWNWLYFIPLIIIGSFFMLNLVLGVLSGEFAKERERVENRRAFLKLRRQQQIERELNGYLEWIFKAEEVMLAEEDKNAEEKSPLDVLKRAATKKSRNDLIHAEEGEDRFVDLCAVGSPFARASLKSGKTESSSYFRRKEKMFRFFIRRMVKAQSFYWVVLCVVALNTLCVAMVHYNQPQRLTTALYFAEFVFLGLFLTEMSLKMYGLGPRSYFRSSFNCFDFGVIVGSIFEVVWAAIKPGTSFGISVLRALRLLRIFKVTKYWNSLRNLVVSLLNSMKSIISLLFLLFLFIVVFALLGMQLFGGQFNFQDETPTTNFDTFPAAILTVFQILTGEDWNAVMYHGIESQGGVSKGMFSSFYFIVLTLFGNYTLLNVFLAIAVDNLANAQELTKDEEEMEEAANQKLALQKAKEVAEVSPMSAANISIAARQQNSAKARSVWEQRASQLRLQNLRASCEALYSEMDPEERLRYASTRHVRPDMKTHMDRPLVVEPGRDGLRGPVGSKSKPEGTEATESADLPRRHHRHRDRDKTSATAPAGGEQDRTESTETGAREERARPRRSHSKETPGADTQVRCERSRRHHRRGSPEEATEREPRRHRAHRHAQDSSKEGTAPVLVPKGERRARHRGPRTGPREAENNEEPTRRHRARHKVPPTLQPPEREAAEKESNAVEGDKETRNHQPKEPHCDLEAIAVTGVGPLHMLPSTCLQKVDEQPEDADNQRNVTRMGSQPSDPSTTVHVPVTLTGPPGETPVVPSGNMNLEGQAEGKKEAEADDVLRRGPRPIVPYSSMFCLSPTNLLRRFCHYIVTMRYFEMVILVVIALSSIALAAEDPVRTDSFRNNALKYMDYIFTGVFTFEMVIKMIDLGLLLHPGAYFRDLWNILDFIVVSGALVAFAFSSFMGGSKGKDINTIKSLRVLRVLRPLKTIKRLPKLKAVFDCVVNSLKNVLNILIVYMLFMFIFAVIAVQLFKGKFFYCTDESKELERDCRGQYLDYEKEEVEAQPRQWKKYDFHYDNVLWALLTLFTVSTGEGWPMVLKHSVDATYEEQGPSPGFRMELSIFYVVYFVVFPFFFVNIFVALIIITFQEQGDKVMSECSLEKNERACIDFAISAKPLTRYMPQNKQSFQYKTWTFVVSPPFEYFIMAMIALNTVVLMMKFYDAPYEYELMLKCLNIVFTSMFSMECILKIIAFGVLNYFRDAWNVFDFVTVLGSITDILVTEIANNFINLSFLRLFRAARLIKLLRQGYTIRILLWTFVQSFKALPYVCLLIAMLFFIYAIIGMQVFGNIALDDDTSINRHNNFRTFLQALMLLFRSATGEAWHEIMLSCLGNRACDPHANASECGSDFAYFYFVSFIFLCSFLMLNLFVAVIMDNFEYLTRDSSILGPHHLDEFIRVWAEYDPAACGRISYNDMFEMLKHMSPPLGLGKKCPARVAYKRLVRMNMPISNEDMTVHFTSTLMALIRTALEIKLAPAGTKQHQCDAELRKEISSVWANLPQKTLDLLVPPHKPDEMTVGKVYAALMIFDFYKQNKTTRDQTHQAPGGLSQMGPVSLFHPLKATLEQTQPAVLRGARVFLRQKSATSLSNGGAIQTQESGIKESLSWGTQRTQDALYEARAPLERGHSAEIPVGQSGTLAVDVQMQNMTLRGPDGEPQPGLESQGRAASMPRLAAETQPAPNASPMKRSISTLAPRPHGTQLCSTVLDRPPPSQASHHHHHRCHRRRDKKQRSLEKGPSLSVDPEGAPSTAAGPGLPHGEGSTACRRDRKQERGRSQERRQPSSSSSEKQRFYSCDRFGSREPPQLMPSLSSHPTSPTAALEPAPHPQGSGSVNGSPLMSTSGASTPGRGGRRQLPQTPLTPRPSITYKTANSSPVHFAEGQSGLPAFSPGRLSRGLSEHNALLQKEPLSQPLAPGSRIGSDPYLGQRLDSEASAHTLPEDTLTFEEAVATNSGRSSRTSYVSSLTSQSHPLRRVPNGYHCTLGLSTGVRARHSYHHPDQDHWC

In the case of TAT-CBD3 (peptide), the reduction in KCl-stimulated CGRP release compared with TAT-control (10 µM TAT-CBD3) in experiment [1] was 85%.

On to “CBD3 peptide fused to enhanced green fluorescent protein (EGFP)”, for which the cells exhibiting CaV2.2 staining on the surface in experiment [2] was 10%. Further, the reduction of peak Ca^2+ current density compared to CRMP-2 neurons (whole-cell voltage clamp) in experiment [3] came out at 64%.

The values above are taken from patent US20180117114A1, “PEPTIDES THAT MODULATE THE EFFECT OF THE CRMP: NEUROFIBROMIN COMPLEX ON SYNAPTIC TRANSMISSION” (Indiana University Research and Technology Coporation, priority 2015, published 2018).
